Positions count from the first letter of the chain named. Numbers in names are those of the source.
T1: His-RecA WT, activated as RecA* (nucleoprotein filament on ssDNA with ATPγS) (E. coli, UniProt P0A7G6 1-353)
T1 chain: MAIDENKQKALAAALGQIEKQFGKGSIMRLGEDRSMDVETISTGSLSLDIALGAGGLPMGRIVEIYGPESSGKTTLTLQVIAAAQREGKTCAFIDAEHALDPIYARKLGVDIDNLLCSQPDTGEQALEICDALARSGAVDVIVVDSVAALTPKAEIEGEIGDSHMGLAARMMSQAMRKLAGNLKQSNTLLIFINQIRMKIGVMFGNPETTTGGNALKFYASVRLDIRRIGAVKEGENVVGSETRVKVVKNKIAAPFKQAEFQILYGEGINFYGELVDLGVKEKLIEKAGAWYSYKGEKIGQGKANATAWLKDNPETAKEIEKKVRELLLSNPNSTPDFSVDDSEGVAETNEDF

B1: LexA quad-mutant (QM): L89P, Q92W, E152A, K156A (natural protein)
chain: MKALTARQQEVFDLIRDHISQTGMPPTRAEIAQRLGFRSPNAAEEHLKALARKGVIEIVSGASRGIRLLQEEEEGLPLVGRVAAGEPLPAQWHIEGHYQVDPSLFKPNADFLLRVSGMSMKDIGIMDGDLLAVHKTQDVRNGQVVVARIDDAVTVARLKKQGNKVELLPENSEFKPIVVDLRQQSFTIEGLAVGVIRNGDWL
B2: His-LexA K156A (natural protein)
chain: B1 chain with P89L, W92Q, A152E

Biological target: T1, His-RecA WT, activated as RecA* …
Test: FP; competition against LexA-δ

Row | Binder | IC50 [nM]
1 | B1 | 3800
2 | B2 | 500
